The supplement of paper PMC12338614
± gives the uncertainty stated by the source.

B1: library; numbered along this chain (parent)
chain: MEVVDPQQLGMFTEGELMSVGMDTFIHRIDSTEVIYQPRRKRAKLIGKYLMGDLLGEGSYGKVKEVLDSETLCRRAVKILKKKKLRRIPNGEANVKKEIQLLRRLRHKNVIQLVDVLYNEEKQKMYMVMEYCVCGMQEMLDSVPEKRFPVCQAHGYFCQLIDGLEYLHSQGIVHKDIKPGNLLLTTGGTLKISDLGVAEALHPFAADDTCRTSQGSPAFQPPEIANGLDTFSGFKVDIWSAGVTLYNITTGLYPFEGDNIYKLFENIGKGSYAIPGDCGPPLSDLLKGMLEYEPAKRFSIRQIRQHSWFRKKHPPAEAPVPIPPSPDTKDRWRSMTVVPYLEDLHGADEDEDLFDIEDDIIYTQDFTVPGQVPEEEASHNGQRRGLPKAVCMNGTEAAQLSTKSRAEGRAPNPARKACSASSKIRRLSACKQQ

Variants of: B1
Experiment: STK11 functional score (HeLa growth suppression), rescaled enrichment; synonymous median = 1, nonsense median = 0 (normalised score)
Settings: with HeLa; variant type: missense
Summary of the method: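 Functional scores are post/pre-selection log ratios corrected to wild type, rescaled to synonymous and nonsense medians, merged over codons and replicate transfections, and given bootstrapped error. They come from POPCode libraries of codon-optimised STK11 integrated by Bxb1 at an AAVS1 landing pad in HeLa, three regions each transfected three times, with BFP-negative, mCherry-positive integrants sorted by FACS and tiled gDNA amplicons sequenced on NextSeq.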

STK11 functional score: each site, then its substitutions
A318: T 1.17 ± 0.67, S 1.33 ± 0.28, P 1.59 ± 0.26, V 1.11 ± 0.093, Q 1.61 ± 0.29, F 1.6 ± 0.22, L 1.58 ± 0.18, Y 1.63 ± 0.31, I 1.49 ± 0.16, D 1.51 ± 0.18, R 1.43 ± 0.34, C 1.23 ± 0.49, M 0.577 ± 0.31
K312: F 0.982 ± 0.26, E 0.874 ± 0.5, S 1.29 ± 0.3, G 1.62 ± 0.15, D 1.49 ± 0.22, Y 1.2 ± 0.1, L 1.3 ± 0.12, V 1.27 ± 0.11, T 1.5 ± 0.27, C 1.17 ± 0.52, M 1.45 ± 0.19, Q 1.58 ± 0.37, P 1.37 ± 0.16, N 1.58 ± 0.43, R 1.57 ± 0.17, W 1.53 ± 0.14, A 1.25 ± 0.3
R304: I 0.364 ± 0.3, K 1.31 ± 0.65, L 1.06 ± 0.17, Y -0.17 ± 0.25, F 0.0963 ± 0.15, V 1.51 ± 0.27, G 1.24 ± 0.36, S 0.843 ± 0.6, A 1.49 ± 0.18
W308: F 1.02 ± 0.078, L -0.172 ± 0.075, C -0.11 ± 0.088, V -0.266 ± 0.088, S -0.303 ± 0.091, R -0.166 ± 0.096, A 0.0826 ± 0.26, Y -0.119 ± 0.11, G 0.086 ± 0.081
F309: S 0.538 ± 0.12, N -0.159 ± 0.08, R 0.0957 ± 0.13, D -0.479 ± 0.093, I 1.38 ± 0.25, L 0.874 ± 0.32, V 0.0641 ± 0.1, G -0.12 ± 0.08
E317: V 1.36 ± 0.11, A 1.53 ± 0.22, M 0.316 ± 0.21, P 1.6 ± 0.21, H 1.25 ± 0.28, N 1.6 ± 0.3, Q 1.2 ± 0.4, S 0.661 ± 0.31, G 1.56 ± 0.17, F 0.542 ± 0.14, D 1.57 ± 0.34, I 1.55 ± 0.19, R 1.58 ± 0.22, Y 1.04 ± 0.4, W 1.62 ± 0.16, C 1.49 ± 0.17, L 1.34 ± 0.27
Q302: L 1.45 ± 0.23, F 1.14 ± 0.5, C 1 ± 0.73, S 1.47 ± 0.16, E 0.957 ± 0.21, H 1.12 ± 0.3, A 1.45 ± 0.33, K 0.605 ± 0.3, R 1.53 ± 0.25, W 0.804 ± 0.68, V 1.21 ± 0.28, P -0.0839 ± 0.19, G 1.14 ± 0.51
H313: I 1.45 ± 0.24, G 1.13 ± 0.29, M 1.25 ± 0.59, V 0.495 ± 0.12, D 1.17 ± 0.29, P 0.624 ± 0.47, R -0.189 ± 0.069, Q 0.889 ± 0.49, W 1.05 ± 0.35, Y 0.272 ± 0.7, N 0.48 ± 0.26, C 1.26 ± 0.29, A 1.33 ± 0.14, E 1.43 ± 0.16, L 1.48 ± 0.18, S 1.17 ± 0.15
F298: S 0.975 ± 0.27, W 0.876 ± 0.092, L 0.608 ± 0.15, Y 0.754 ± 0.77, R 0.428 ± 0.25, V 0.839 ± 0.14, P 1.16 ± 0.26, I 1.35 ± 0.61
V320: C 0.788 ± 0.12, I 1.59 ± 0.17, A 1.55 ± 0.2, W 0.717 ± 0.091, R 1.49 ± 0.17, F 1.07 ± 0.37, L 0.723 ± 0.1, T 1.57 ± 0.27, P 1.56 ± 0.33, Y 1.55 ± 0.23, S 1.48 ± 0.14, M 1.47 ± 0.53, H 1.59 ± 0.27
P315: Q 1.34 ± 0.075, A 1.07 ± 0.15, T 1.2 ± 0.42, K 1.56 ± 0.27, S 1.41 ± 0.14, H 1.34 ± 0.24, V 1.17 ± 0.18, M 1.6 ± 0.19, I 1.21 ± 0.28, C 1.17 ± 0.42, N 1.51 ± 0.16, E 1.57 ± 0.26, G 1.29 ± 0.39, W 0.723 ± 0.21, L 1.42 ± 0.18, Y 1.29 ± 0.08, D 1.51 ± 0.16, R 1.32 ± 0.17
R301: A 1.56 ± 0.16, I 1.65 ± 0.25, V 1.62 ± 0.17, G 1.48 ± 0.25, P 1.07 ± 0.38, S 1.49 ± 0.35, F 1.55 ± 0.22, C 1.17 ± 0.38, L 1.6 ± 0.16, Y 1.6 ± 0.3
P319: N 1.48 ± 0.16, Y 1.46 ± 0.21, L 1.3 ± 0.17, C 0.642 ± 0.073, S 1.4 ± 0.28, V 0.772 ± 0.46, W 0.513 ± 0.25, R 1.53 ± 0.26, H 1.16 ± 0.43, Q 1.39 ± 0.2, A 1.37 ± 0.32, F 1.47 ± 0.26, G 1.53 ± 0.2, D 1.52 ± 0.16, M 1.39 ± 0.12
S307: T 1.22 ± 0.52, L 1.47 ± 0.1, W 1.47 ± 0.15, P 1.57 ± 0.27, G 0.664 ± 0.35, R 0.948 ± 0.22, A 1.49 ± 0.15, I 1.02 ± 0.091, F 1.38 ± 0.1, D 1.49 ± 0.16, V 1.34 ± 0.16
P323: D 1.33 ± 0.44, F 1.36 ± 0.33, E 1.56 ± 0.27, H 1.42 ± 0.2, A 1.15 ± 0.28, G 1.13 ± 0.11, C 1.28 ± 0.5
I300: S 0.391 ± 0.083, F 1.21 ± 0.35, M 0.944 ± 0.21, R -0.144 ± 0.081, V 1.13 ± 0.28, C 0.803 ± 0.36, P 1.42 ± 0.13, L 1.25 ± 0.1, A 1.51 ± 0.15, W 1.27 ± 0.09, G 0.368 ± 0.12
I322: V 1.08 ± 0.23, R 1.11 ± 0.2, Q 0.336 ± 0.09, C 1.17 ± 0.32, M 0.829 ± 0.47, Y 0.925 ± 0.36, N 1.59 ± 0.44, H 0.839 ± 0.66, F 1.25 ± 0.22, E 1.11 ± 0.19, W 1.18 ± 0.088, D 1.18 ± 0.52, G -0.0839 ± 0.11, A 1.53 ± 0.16, L 0.886 ± 0.078, S 1.21 ± 0.24, T 0.984 ± 0.58
A316: I 1.32 ± 0.3, G 1.25 ± 0.19, P 0.694 ± 0.36, Y 1.4 ± 0.12, L 0.961 ± 0.14, V 0.768 ± 0.24, R 0.901 ± 0.098, W 0.538 ± 0.091, Q 1.53 ± 0.15, S 0.768 ± 0.23, F 1.19 ± 0.28, M 1 ± 0.69
P314: Q 1.17 ± 0.14, T 1.54 ± 0.17, M 1.62 ± 0.15, I 1.5 ± 0.15, F 1.18 ± 0.26, C 1.53 ± 0.18, G 1.07 ± 0.47, W 1.6 ± 0.17, L 1.21 ± 0.15, Y 0.95 ± 0.15, A 1.13 ± 0.17, S 1.33 ± 0.16, E 1.54 ± 0.15, N 1.53 ± 0.13, V 1.16 ± 0.37, D 1.5 ± 0.17, R 1.26 ± 0.22
R310: C 1.06 ± 0.17, T 0.923 ± 0.65, P 0.954 ± 0.3, H 1.5 ± 0.18, Y 1.53 ± 0.17, F 1.35 ± 0.15, L 1.37 ± 0.27, D 1.6 ± 0.15, G 0.764 ± 0.2, I 1.59 ± 0.16, V 1.43 ± 0.15, S 1.54 ± 0.22
H306: Y 0.195 ± 0.17, R 0.628 ± 0.086, I 0.83 ± 0.16, A 1.38 ± 0.39, G 0.475 ± 0.077, V 0.418 ± 0.39, P 0.114 ± 0.26, Q 0.514 ± 0.21, S 1.53 ± 0.15, T 1.54 ± 0.19, E 1.19 ± 0.38, C 0.975 ± 0.1, W -0.368 ± 0.084, L 0.85 ± 0.59
S299: R 1.53 ± 0.18, L 0.649 ± 0.57, C 1.3 ± 0.2, G 1.18 ± 0.52, W 1.24 ± 0.14, I 1.25 ± 0.34, V 0.978 ± 0.26, E 1.56 ± 0.15, A 1.42 ± 0.15, F 0.544 ± 0.1, D 1.18 ± 0.16, N 1.59 ± 0.16, T 1.55 ± 0.16
K311: W 0.995 ± 0.075, G 1.35 ± 0.23, L 1.04 ± 0.14, T 1.3 ± 0.18, V 0.835 ± 0.47, D 1.32 ± 0.29, N 0.848 ± 0.47, A 1.61 ± 0.15, I 1.26 ± 0.24, Y 1.06 ± 0.41, S 0.915 ± 0.3, P 1.07 ± 0.4, H 0.501 ± 0.66, R 1.43 ± 0.24
P321: N 1.03 ± 0.51, M 1.61 ± 0.27, F 0.903 ± 0.49, L 1.17 ± 0.25, V 1.41 ± 0.28, R 1.26 ± 0.26, H 1.21 ± 0.32, W 1.6 ± 0.15, I 1.53 ± 0.16, Y 0.641 ± 0.72, G 1.01 ± 0.14, A 0.987 ± 0.33, S 1.42 ± 0.13, D 1.55 ± 0.18
I303: Q 1.56 ± 0.24, M 0.518 ± 0.53, V 1.43 ± 0.25, C 0.545 ± 0.16, Y -0.337 ± 0.56, N 1.54 ± 0.61, D -0.579 ± 0.078, S -0.209 ± 0.085, F 0.372 ± 0.088
Q305: V 1.59 ± 0.25, W 0.981 ± 0.4, E 1.02 ± 0.38, F 1.51 ± 0.2, K 0.543 ± 0.25, M 1.51 ± 0.15, S 0.954 ± 0.59, A 1.33 ± 0.15, H 0.99 ± 0.61, R 1.14 ± 0.47, L 1.6 ± 0.16, D 1.36 ± 0.16, Y 1.53 ± 0.17, C 1.27 ± 0.4, T 1.5 ± 0.24, G 1.52 ± 0.3, I 1.53 ± 0.14
